Drawing on patent US20110182905A1, this text covers TF-1 assay hGM-CSF (E. coli) [pM], GM-CSF final concentration 1.0 ng/ml for 1 substance.

The assay deals with purified hGM-CSF (Biomol #2514, expressed in E. coli) (human) (UniProt P04141). The assay is described as follows: cell-based or functional assay.
Chain of purified hGM-CSF (Biomol #2514, expressed in E. coli) (human) (P04141 18-144 limits assumed): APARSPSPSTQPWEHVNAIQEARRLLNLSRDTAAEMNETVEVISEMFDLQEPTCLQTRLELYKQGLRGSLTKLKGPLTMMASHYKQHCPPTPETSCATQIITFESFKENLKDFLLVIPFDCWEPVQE

Substance “rat-anti-human-GM-CSF IgG2a BVD2-21C11 (BD #554503) (antibody)” showed a TF-1 assay hGM-CSF (E. coli) [pM], GM-CSF final concentration 1.0 ng/ml of 8260 pM.
